Measured values taken from US20240166767A1 (SCIRHOM, published 2024).
Where a chain is given by its changes, count along the chain named.

Biological target: T1, dog iRhom1 full length wild type, T7-tagged (dog, UniProt A0A8I3MHT7 11-866)
T1 construct: whole, on cells; also called Dog-iR1-FL-WT-T7; expressed by MEF-DKO-Dog-iR1-FL-WT-T7 cells
T1 sequence: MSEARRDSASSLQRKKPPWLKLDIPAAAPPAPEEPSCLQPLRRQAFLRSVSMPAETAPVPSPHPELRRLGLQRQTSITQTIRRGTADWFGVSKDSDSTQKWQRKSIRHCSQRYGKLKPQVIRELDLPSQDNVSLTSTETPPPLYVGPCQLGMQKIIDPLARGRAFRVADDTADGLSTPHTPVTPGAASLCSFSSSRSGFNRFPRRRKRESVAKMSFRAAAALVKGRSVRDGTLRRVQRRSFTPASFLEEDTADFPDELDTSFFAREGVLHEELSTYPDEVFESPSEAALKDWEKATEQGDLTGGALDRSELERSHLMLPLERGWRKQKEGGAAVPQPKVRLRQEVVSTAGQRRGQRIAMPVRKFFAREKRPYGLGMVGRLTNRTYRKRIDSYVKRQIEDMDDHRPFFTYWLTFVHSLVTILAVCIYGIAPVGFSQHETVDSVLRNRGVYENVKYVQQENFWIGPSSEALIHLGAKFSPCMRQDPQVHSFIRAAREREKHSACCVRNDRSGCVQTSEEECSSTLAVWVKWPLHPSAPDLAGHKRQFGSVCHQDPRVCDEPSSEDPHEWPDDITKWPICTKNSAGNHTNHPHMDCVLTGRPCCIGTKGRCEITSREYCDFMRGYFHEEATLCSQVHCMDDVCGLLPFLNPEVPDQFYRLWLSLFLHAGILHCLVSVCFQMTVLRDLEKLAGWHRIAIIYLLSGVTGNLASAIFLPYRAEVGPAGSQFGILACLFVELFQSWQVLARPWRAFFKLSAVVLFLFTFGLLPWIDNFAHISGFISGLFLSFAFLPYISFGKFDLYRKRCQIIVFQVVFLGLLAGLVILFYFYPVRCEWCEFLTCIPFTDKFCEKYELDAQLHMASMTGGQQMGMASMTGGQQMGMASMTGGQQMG
Experiment: FACS on MEF-DKO-Dog-iR1-FL-WT-T7 cells
Protocol: In brief, immortalized MEF-DKO-EV control cells, MEF-DKO-rhesus-iR2-FL-WT-T7 cells, MEF-DKO-cyno-iR2-FL-WT-T7 cells, MEF-DKO-dog-iR2-FL-WT-T7 cells and MEF-DKO-rabbit-iR2-FL-WT-T7 cells, as well as their respective iRhom1 counterparts, were harvested with 10 mM EDTA in PBS, washed and resuspended in FACS buffer (PBS, 3% FBS, 0.05% sodium azide), and seeded in Nunc U-bottom 96-well plates (Thermo Fisher Scientific, USA) at approximately 3×10⁵ cells per well. To pellet cells and remove supernatants, the plates were centrifuged at 1,500 rpm and 4° C. for 3 minutes. For primary staining, cells were resuspended in 100 μl per well of either FACS buffer alone (controls), mouse monoclonal anti-T7 IgG (Merck Millipore, USA) at 3 μg/ml FACS buffer or the antibodies of the invention also at 3 μg/ml FACS buffer and incubated on ice for 1 hour. Afterwards, plates were centrifuged at 1,500 rpm and 4° C. for 3 minutes and washed twice with 200 μl per well of FACS buffer. For secondary staining of previous anti T7 staining, cells were spun down and resuspended in 100 μl per well of PE-conjugated goat anti-mouse IgG F(ab′)2 detection fragment (Dianova, Germany) diluted 1:100 in FACS buffer. For secondary staining of previous staining with humanized antibodies of invention, cells were spun down and resuspended in 100 μl per well of PE-conjugated goat anti-human IgG F(ab′)2 detection fragment (Dianova, Germany) diluted 1:100 in FACS buffer. Protected from light, the cell suspensions were incubated on ice for 1 hour. Plates were then centrifuged at 1,500 rpm and 4° C. for 3 minutes and washed three times with 200 μl per well of FACS buffer. Finally, cells were resuspended in 150 μl per well of FACS buffer and analyzed using a BD Accuri™ C6 Plus flow cytometer (Becton Dickinson, Germany).

B1: humanized antibody 42-B-04 (antibody, V domains shown)
VH: QVTLRESGPALVKPTQTLTLTCTFSGFSLSTFGRGVGWIRQPPGKALEWLAHIWWDDEKYYNSALKSRLTISKDTSKNQVVLTITNMDPVDTATYYCARIQNYGSNYWYFDVWGQGTLVTVSS
VL: AIQLTQSPSSLSASVGDRVTITCRASSRISYMFWYQQKPGKAPKVLIYDTSNLASGVPSRFSGSGSGTDYTLTISSLQPEDFATYYCQQWNAYPLTFGQGTKLEIK
notes: Tested as whole humanized antibody produced in CHO cells and detected with anti-human IgG; the general methods speak of human IgG1/Kappa; also called clone 42-B-04
- binding result: no binding (tested: 3 µg/ml)

B2: humanized antibody 23-B-04 (antibody, V domains shown)
VH: B1 VH with R34M, Q101S, D111N
VL: B1 VL with R28S, I29V, F33Y
notes: Tested as whole humanized antibody produced in CHO cells and detected with anti-human IgG; the general methods speak of human IgG1/Kappa; also called clone 23-B-04
- binding result: no binding (tested: 3 µg/ml)

B3: humanized antibody 42-B-02 (antibody, V domains shown)
VH: B1 VH
VL: B1 VL with A92S
notes: Tested as whole humanized antibody from transient expression of heavy chain/kappa light chain pairs in CHO cells, detected with anti-human IgG; the general methods speak of human IgG1/Kappa; also called clone 42-B-02
- binding result: no binding (tested: 3 µg/ml)

B4: humanized antibody 16-B-07 (antibody, V domains shown)
VH: QVTLRESGPALVKPTQTLTLTCTFSGFSLSTFALGVGWIRQPPGKALEWLAHIWWDEDKYYNPALKSRLTISKDTSKNQVVLTITNMDPVDTATYYCARITTYYYGMDYWGQGTLVTVSS
VL: EIVMTQSPDFQSVTPKEKVTITCRASQSIGNHLHWYQQKPDASPKLLIKYASQSISGVPSRFSGSGSGTDFTLTINSLEAEDAATYFCQQSYQWPLTFGQGTKLEIK
notes: Tested as whole humanized antibody produced in CHO cells and detected with anti-human IgG; the general methods speak of human IgG1/Kappa; also called clone 16-B-07
- binding result: no binding (tested: 3 µg/ml)

B5: humanized antibody 16-B-03 (antibody, V domains shown)
VH: B4 VH with E57D
VL: B4 VL
notes: Tested as whole humanized antibody produced in CHO cells and detected with anti-human IgG; the general methods speak of human IgG1/Kappa; also called clone 16-B-03
- binding result: no binding (tested: 3 µg/ml)

B6: humanized antibody 16-B-05 (antibody, V domains shown)
VH: B4 VH
VL: B4 VL with Q93N
notes: Tested as whole humanized antibody produced in CHO cells and detected with anti-human IgG; the general methods speak of human IgG1/Kappa; The printed LCVD reads SRESGSG where the printed cDNA encodes SRFSGSG; also called clone 16-B-05
- binding result: no binding (tested: 3 µg/ml)
